{
  "source": "paper PMC3169408",
  "about": "“Structure of triosephosphate isomerase from Cryptosporidium parvum” (Acta Crystallographica Section F: Structural Biology and …, 2011)",
  "molecular_target": "the molecule itself",
  "test": "crystal structure; crystals from 100 mM Bis-Tris propane pH 7.5, 200 mM sodium sulfate, 20% PEG 3350; space group P2(1); 1.55 Å; two molecules per asymmetric unit; interface analysed with PISA",
  "data": [
    {"protein": "triosephosphate isomerase from Cryptosporidium parvum Iowa II (enzyme, UniProt Q5CSE7 1-250, looked up, triosephosphate isomerase, Cryptosporidium parvum Iowa II, UniProt Q5CSE7, residues 1-250 (Met1-Gln250), full length; The final model extends from Ser2 to Gln250 in both chains; also called TIM; CrpaA.01119.a.A1; source: E. coli Rosetta Oxford strain [BL21*(DE3)-R3-pRARE2], purified (IMAC, tag cleavage with 3C protease, SEC)) MSRKYFVGGNFKCNGTKESLKTLIDSFKQVESSNSEVYVFPTSLHISLVKEFFGNDHPGVFKIGSQNISCTGNGAFTGEVSCEMLKDMDVDCSLVGHSERRQYYSETDQIVNNKVKKGLENGLKIVLCIGESLSERETGKTNDVIQKQLTEALKDVSDLSNLVIAYEPIWAIGTGVVATPGQAQEAHAFIREYVTRMYNPQVSSNLRIIYGGSVTPDNCNELIKCADIDGFLVGGASLKPTFAKIIESAQ", "values": [
      {"measurement": "stoichiometry N", "value": 2}
    ]}
  ]
}
